Substitutions are numbered along the chain they refer to.
Columns and labels:
[1] = molecular target: T1, IL-3Rα/GM-CSFRα chimeric protein, region 4 (97-…-104) of IL-3Rα replaced by GM-CSFRα sequence, on HEK293T … (human, UniProt P26951 19-378); assay: flow cytometry, labelled antibody at 1 µg/ml, HEK293T cells expressing the construct
T1 construct: also called Region 4 (A-B)
T1 chain: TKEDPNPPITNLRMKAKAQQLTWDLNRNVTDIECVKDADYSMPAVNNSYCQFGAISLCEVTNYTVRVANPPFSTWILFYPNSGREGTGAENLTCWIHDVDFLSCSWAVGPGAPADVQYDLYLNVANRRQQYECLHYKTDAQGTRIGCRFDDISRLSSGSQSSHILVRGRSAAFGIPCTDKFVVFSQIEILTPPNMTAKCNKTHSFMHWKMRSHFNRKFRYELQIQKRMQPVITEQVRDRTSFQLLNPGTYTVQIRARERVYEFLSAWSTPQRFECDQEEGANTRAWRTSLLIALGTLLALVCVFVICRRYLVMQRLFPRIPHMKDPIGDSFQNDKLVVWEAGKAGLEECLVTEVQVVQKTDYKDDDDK

[2] = molecular target: T2, IL-3Rα/GM-CSFRα chimeric protein, region 6 (182-ILVRGRS-188) of IL-3Rα replaced by GM-CSFRα sequence, on … (human, UniProt P26951 19-378); assay: as above
T2 construct: also called Region 6 (B)
T2 chain: T1 chain with Y79P, P80E, R84K, E85P, G86W, T87A, I164F, R167N, R169T

[3] = molecular target: T3, IL-3Rα/GM-CSFRα chimeric protein, region 7 (192-GIPCTDK-198) of IL-3Rα replaced by GM-CSFRα sequence, on … (human, UniProt P26951 19-378); assay: as above
T3 construct: also called Region 7 (B)
T3 chain: T1 chain with Y79P, P80E, R84K, E85P, G86W, T87A, P176Q, C177F, T178F, K180S

[4] = molecular target: T4, soluble form of human IL-3Rα protein (extracellular region with C-terminal FLAG tag) (human, UniProt P26951 19-305); assay: SPR (Biacore 2000): antibody captured on anti-human antibody CM5 chip, soluble IL-3Rα as analyte, 1:1 Langmuir fit
T4 construct: Made in CHOras1 cells, purified on anti-FLAG gel; also called soluble form of IL-3Rα protein; soluble form of human IL-3Rα extracellular region
T4 sequence: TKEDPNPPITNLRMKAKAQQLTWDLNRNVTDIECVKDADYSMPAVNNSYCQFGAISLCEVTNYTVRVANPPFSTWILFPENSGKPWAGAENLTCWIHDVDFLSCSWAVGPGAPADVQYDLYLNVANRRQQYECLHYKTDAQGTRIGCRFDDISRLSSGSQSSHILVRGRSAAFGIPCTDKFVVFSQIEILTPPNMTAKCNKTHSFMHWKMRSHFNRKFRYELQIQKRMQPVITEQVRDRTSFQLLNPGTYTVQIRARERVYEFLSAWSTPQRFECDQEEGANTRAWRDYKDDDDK
Procedure: Specifically, CM5 (research grade) was used for a sensor tip (each GE). Firstly, the CM5 tip was activated by applying an equivalent mixture of 400 mM EDC (N-ethyl-N′-(3-dimethylaminopropyl)carbodiimidehydrochloride) and 100 mM NHS (N-hydroxysuccinimide) to the CM5 tip. Next, an antibody to the human antibody attached to the Human Antibody Capture Kit (GE) (hereinafter, referred to as anti-human antibody antibody) was diluted with the solution attached to the kit and applied thereto, thereby immobilizing the required amount of the anti-human antibody antibody to the CM5 tip. Regarding the mouse antibody to be used as a control, an antibody to the mouse antibody attached to the Mouse Antibody Capture Kit (GE) (hereinafter, referred to as anti-mouse antibody antibody) was diluted with the solution attached to the kit and applied thereto, thereby immobilizing a necessary amount thereof to the CM5 tip. Next, the surface of the activated tip was blocked and inactivated by applying 1 M of ethanolamine dihydrochloride thereto. By the above steps until this, preparation of a CM5 sensor tip which can measure the dissociation constant KD was completed.
Next, each of anti-IL-3Rα antibodies, was diluted to give a concentration of 5 μg/ml with HBS-FP buffer (GE) one kind per one flow cell and applied, thereby allowing it to bind to the immobilized anti-human antibody antibody or anti-mouse antibody antibody. Next, the soluble form of IL-3Rα protein was applied thereto. In order to dissociate the bound anti-IL-3Rα antibody and soluble form of IL-3Rα protein, 3 M MgCl₂ attached to Human Antibody Capture Kit or pH 1.7 of Glycine-HCl attached to Mouse Antibody Capture Kit was applied in the amount attached to the kit. The steps until this were regarded as one step. By repeating the same steps using two or more concentrations of the soluble form of IL-3Rα protein, data for calculating association and dissociation constants (sensorgram) were obtained.
In the analysis, Biaevaluation software (GE) was used and Biaevaluation Software Handbook was referred. Specifically, by carrying out simultaneous analysis of kinetics analysis, employing basically the 1:1 Langmuir binding reaction model and fitting, association rate constant (Ka) and dissociation rate constant (Kd) were calculated, and the value of dissociation constant KD was calculated by the calculation of Kd/Ka.

B1: Old19 anti-human IL-3Rα human antibody (antibody, human IgG1, V domains shown)
VH: QVQLVQSGAEVKKPGSSVKVSCKASGGTFSSYAISWVRQAPGQGLEWVGGIIPIFGTANYAQKFQGRVTITADESTSTAYMELSSLRSEDTAVYYCARGHKYGPYYFDYWGQGTLVTVSS
VL: DIQMTQSPSSLSASVGDRVTITCRASQGISSWLAWYQQKPEKAPKSLIYAASSLQSGVPSRFSGSGSGTDFTLTISSLQPEDFATYYCQQYNSYPRTFGQGTKVEIK
notes: Human antibody; recombinant form in N5KG1-Val Lark vector (human IgG1, kappa)
B1: no binding (tested: 1 µg/ml) [1]; no binding (tested: 1 µg/ml) [2]; no binding (tested: 1 µg/ml) [3]. The Kd [4] was 3.24 nM.
